B1: RILPL2-GFP WT, full length [human] / HA-Rab8a in MLi-2 treated cells (LRRK2 inhibited) [Homo sapiens (Human).] (parent)
chain 1: MEEPPVREEEEEEGEEDEERDEVGPEGALGKSPFQLTAEDVYDISYLLGRELMALGSDPRVTQLQFKVVRVLEMLEALVNEGSLALEELKMERDHLRKEVEGLRRQSPPASGEVNLGPNKMVVDLTDPNRPRFTLQELRDVLQERNKLKSQLLVVQEELQCYKSGLIPPREGPGGRREKDAVVTSAKNAGRNKEEKTIIKKLFFFRSGKQT
chain 2: MAKTYDYLFKLLLIGDSGVGKTCVLFRFSEDAFNSTFISTIGIDFKIRTIELDGKRIKLQIWDTAGQERFRTITTAYYRGAMGIMLVYDITNEKSFDNIRNWIRNIEEHASADVEKMILGNKCDVNDKRQVSKERGEKLALDYGIKFMETSAKANINVENAFFTLARDIKAKMDKKLEGNSPQGSNQGVKITPDQQKRSSFFRC

Variants of: B1
Assay: co-immunoprecipitation (GFP binder Sepharose) with LI-COR immunoblot quantification
Details: with HA-Rab8a in MLi-2 treated cells (LRRK2 inhibited) [Homo sapiens (Human).]; HEK293 cells, Flag-LRRK2[Y1699C] + HA-Rab8a co-expressed; 500 nM MLi-2 for 90 min; parent: 0.11; read off a plot

Variant	ratio to parent
chain 1 MEEPPVREEEEEEGEEDEERDEVGPEGALGKSPFQLTAEDVYDISYLLGRELMALGSDPRVTQLQFKVVRVLEMLEALVNEGSLALEELKMERDHLRKEVEGLRRQSPPASGEVNLGPNKMVVALTDPNRPRFTLQELRDVLQERNKLKSQLLVVQEELQCYKSGLIPPREGPGGRREKDAVVTSAKNAGRNKEEKTIIKKLFFFRSGKQT [chain 1 D124A]	0.06
chain 1 MEEPPVREEEEEEGEEDEERDEVGPEGALGKSPFQLTAEDVYDISYLLGRELMALGSDPRVTQLQFKVVRVLEMLEALVNEGSLALEELKMERDHLRKEVEGLRRQSPPASGEVNLGPNKMVVNLTDPNRPRFTLQELRDVLQERNKLKSQLLVVQEELQCYKSGLIPPREGPGGRREKDAVVTSAKNAGRNKEEKTIIKKLFFFRSGKQT [chain 1 D124N]	0.09
chain 1 MEEPPVREEEEEEGEEDEERDEVGPEGALGKSPFQLTAEDVYDISYLLGRELMALGSDPRVTQLQFKVVRVLEMLEALVNEGSLALEELKMERDHLRKEVEGLRRQSPPASGEVNLGPNKMVVDLTAPNRPRFTLQELRDVLQERNKLKSQLLVVQEELQCYKSGLIPPREGPGGRREKDAVVTSAKNAGRNKEEKTIIKKLFFFRSGKQT [chain 1 D127A]	0.13
chain 1 MEEPPVREEEEEEGEEDEERDEVGPEGALGKSPFQLTAEDVYDISYLLGRELMALGSDPRVTQLQFKVVRVLEMLEALVNEGSLALEELKMERDHLRKEVEGLRRQSPPASGEVNLGPNKMVVDLTNPNRPRFTLQELRDVLQERNKLKSQLLVVQEELQCYKSGLIPPREGPGGRREKDAVVTSAKNAGRNKEEKTIIKKLFFFRSGKQT [chain 1 D127N]	0.12
chain 1 MEEPPVREEEEEEGEEDEERDEVGPEGALGKSPFQLTAEDVYDISYLLGRELMALGSDPRVTQLQFKVVRVLEMLEALVNEGSLALEELKMERDHLRKEVEGLRRQSPPASGEVNLGPNKMVVDLTDANRPRFTLQELRDVLQERNKLKSQLLVVQEELQCYKSGLIPPREGPGGRREKDAVVTSAKNAGRNKEEKTIIKKLFFFRSGKQT [chain 1 P128A]	0.11
chain 1 MEEPPVREEEEEEGEEDEERDEVGPEGALGKSPFQLTAEDVYDISYLLGRELMALGSDPRVTQLQFKVVRVLEMLEALVNEGSLALEELKMERDHLRKEVEGLRRQSPPASGEVNLGPNKMVVDLADPNRPRFTLQELRDVLQERNKLKSQLLVVQEELQCYKSGLIPPREGPGGRREKDAVVTSAKNAGRNKEEKTIIKKLFFFRSGKQT [chain 1 T126A]	0.12
